In the supplement of paper PMC10065799, “High-throughput profiling of sequence recognition by tyrosine kinases and SH2 domains using bacterial peptide display” (eLife, 2023):
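Note: 11-residue human phosphosite peptides and single-mutation variants displayed on the E. coli surface, counted by deep sequencing, each peptide's frequency after selection divided by its frequency in the unselected input library; frequency after pTyr selection over input frequency; kinase dosed for 20-30% of maximal phosphorylation in three min.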

These sequences were tested on AncSZ (assay: phosphorylation enrichment, bacterial display (enrichment ratio); higher = better substrate or ligand; peptides without Tyr show the background).
With GKMSQYLESMQ [CYB5R3_Y130] the phosphorylation enrichment was 0.646. For QWRTKYETDTI [MYH7_Y1375_A1379T], the phosphorylation enrichment was 0.819. KILAKYLLETS [NAMPT_Y175] was tested, and the phosphorylation enrichment was 0.66. In the case of IVRSRYEDLED [VHL_Y185_L184R], the phosphorylation enrichment is reported as 1.37. DRLTVYIDRVR [LMNA_Y45_A43T] showed a phosphorylation enrichment of 1.34. CHKRTYKVTGL was tested, and the phosphorylation enrichment was 0.587. Sequence ENFSEYQEIAV [HEMGN_Y150] has a phosphorylation enrichment of 1.51. DRLASYPEKVR [KRT13_Y118_L119P] gave a phosphorylation enrichment of 0.395. AVLSLYASGCT [ACTA2_Y145_R149C] showed a phosphorylation enrichment of 1.2. With NLNGKYFKPRA [ANGPTL3_Y417_N418Y_YF] the phosphorylation enrichment was 0.646. GDFSRYDEGSG [RECQL5_Y484] was tested, and the phosphorylation enrichment was 0.889. AHEALYLEADL [CENPF_Y1920_E1915A] was tested, and the phosphorylation enrichment was 1.82. With EVASVYESYQP [MAVS_Y92_Q93E] the phosphorylation enrichment was 1.83. Sequence RFVTRSIFNRE [HLA-DQB1_Y62_Y62S_YF] has a phosphorylation enrichment of 1.14. With SVTCTHSPALN [TP53_Y126_Y126H] the phosphorylation enrichment was 0.862. In the case of PLFSKYWPNHI [GREB1L_Y1560_R1558S_YF], the phosphorylation enrichment is reported as 2.32. Sequence LLKAKYELLNA [POLR3A_Y714] has a phosphorylation enrichment of 0.582. In the case of SNMPTYSGHFS [GRIN2A_Y1224_T1229S], the phosphorylation enrichment is reported as 0.594. TTSQLYDAMPI [PDPK1_Y9_V12M] gave a phosphorylation enrichment of 0.986. Work on GIVEDYRPPFY [ACVRL1_Y421] yielded a phosphorylation enrichment of 0.981. Work on QRKRAYVEIEY [MAK16_Y282] yielded a phosphorylation enrichment of 0.696. With SGLDSYVRSLP [TRAPPC1_Y133_R129G] the phosphorylation enrichment was 0.618. For VDDEIYYFRKP [PBRM1_Y1289], the phosphorylation enrichment was 2.94. Work on PLLEFYWDIFT [CDAN1_Y713_R714W_YF] yielded a phosphorylation enrichment of 0.971. PVDVAYRRGYF [PLEC_Y2967] showed a phosphorylation enrichment of 0.867. Work on THEVRYVSAGQ [SLCO4A1_Y77] yielded a phosphorylation enrichment of 0.733. For SDPIVYTLENI [EMR1_Y534_I533V], the phosphorylation enrichment was 1.09. KFRREYILSLE [GPC3_Y299_W296R_YF] showed a phosphorylation enrichment of 0.786. In the case of EICTQYEAMAS [GFAP_Y242_R239C], the phosphorylation enrichment is reported as 1.23. EFTAGYNVKFD [GPX4_Y123_A120T] was tested, and the phosphorylation enrichment was 0.762. In the case of SSYDTYHLSRE [KIR3DL2_Y253_I252T], the phosphorylation enrichment is reported as 0.709. Sequence SIGLGYHKDLQ [NF1_Y1169] has a phosphorylation enrichment of 0.528. For FSCLPYRRLAY [SLC52A2_Y305_G306R], the phosphorylation enrichment was 0.95.

These sequences were tested against EPHB1 (UniProt P54762) in the same assay as above.
Chain of EPHB1 (P54762 whole entry, looked up): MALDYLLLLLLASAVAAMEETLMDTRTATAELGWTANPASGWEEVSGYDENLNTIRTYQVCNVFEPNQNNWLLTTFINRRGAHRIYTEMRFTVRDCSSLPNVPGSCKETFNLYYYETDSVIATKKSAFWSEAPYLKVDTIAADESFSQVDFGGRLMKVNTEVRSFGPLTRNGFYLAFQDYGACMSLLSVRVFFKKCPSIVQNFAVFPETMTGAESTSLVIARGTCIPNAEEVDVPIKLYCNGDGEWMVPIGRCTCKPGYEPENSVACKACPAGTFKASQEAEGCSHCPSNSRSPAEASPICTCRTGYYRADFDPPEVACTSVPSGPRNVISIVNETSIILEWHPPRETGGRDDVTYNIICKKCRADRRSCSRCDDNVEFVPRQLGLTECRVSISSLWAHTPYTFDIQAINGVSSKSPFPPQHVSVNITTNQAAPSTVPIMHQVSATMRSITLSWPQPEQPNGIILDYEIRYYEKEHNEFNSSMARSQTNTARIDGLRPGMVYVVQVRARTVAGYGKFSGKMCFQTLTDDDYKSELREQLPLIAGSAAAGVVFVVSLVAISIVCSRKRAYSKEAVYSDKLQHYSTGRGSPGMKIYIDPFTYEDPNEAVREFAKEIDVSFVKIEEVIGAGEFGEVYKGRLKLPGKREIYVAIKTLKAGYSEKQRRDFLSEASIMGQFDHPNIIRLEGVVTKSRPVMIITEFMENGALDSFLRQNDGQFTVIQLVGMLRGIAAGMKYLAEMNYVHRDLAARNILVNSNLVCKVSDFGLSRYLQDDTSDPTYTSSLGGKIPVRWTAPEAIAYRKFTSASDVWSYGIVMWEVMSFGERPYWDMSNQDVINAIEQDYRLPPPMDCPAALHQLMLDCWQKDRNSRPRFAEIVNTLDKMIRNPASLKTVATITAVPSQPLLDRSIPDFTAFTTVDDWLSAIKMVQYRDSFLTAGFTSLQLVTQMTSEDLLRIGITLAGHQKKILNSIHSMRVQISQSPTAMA
In the case of GKMSQYLESMQ [CYB5R3_Y130], the phosphorylation enrichment is reported as 0.336. Work on QWRTKYETDTI [MYH7_Y1375_A1379T] yielded a phosphorylation enrichment of 0.616. In the case of KILAKYLLETS [NAMPT_Y175], the phosphorylation enrichment is reported as 0.431. For IVRSRYEDLED [VHL_Y185_L184R], the phosphorylation enrichment was 0.675. Work on DRLTVYIDRVR [LMNA_Y45_A43T] yielded a phosphorylation enrichment of 0.553. With CHKRTYKVTGL the phosphorylation enrichment was 0.405. With ENFSEYQEIAV [HEMGN_Y150] the phosphorylation enrichment was 2.29. With DRLASYPEKVR [KRT13_Y118_L119P] the phosphorylation enrichment was 0.323. AVLSLYASGCT [ACTA2_Y145_R149C] was tested, and the phosphorylation enrichment was 0.825. NLNGKYFKPRA [ANGPTL3_Y417_N418Y_YF] was tested, and the phosphorylation enrichment was 0.538. GDFSRYDEGSG [RECQL5_Y484] showed a phosphorylation enrichment of 0.523. Sequence AHEALYLEADL [CENPF_Y1920_E1915A] has a phosphorylation enrichment of 0.781. For EVASVYESYQP [MAVS_Y92_Q93E], the phosphorylation enrichment was 0.948. RFVTRSIFNRE [HLA-DQB1_Y62_Y62S_YF] showed a phosphorylation enrichment of 0.61. In the case of SVTCTHSPALN [TP53_Y126_Y126H], the phosphorylation enrichment is reported as 0.498. Work on PLFSKYWPNHI [GREB1L_Y1560_R1558S_YF] yielded a phosphorylation enrichment of 1. LLKAKYELLNA [POLR3A_Y714] was tested, and the phosphorylation enrichment was 0.454. In the case of SNMPTYSGHFS [GRIN2A_Y1224_T1229S], the phosphorylation enrichment is reported as 0.585. With TTSQLYDAMPI [PDPK1_Y9_V12M] the phosphorylation enrichment was 8.16. For GIVEDYRPPFY [ACVRL1_Y421], the phosphorylation enrichment was 0.522. QRKRAYVEIEY [MAK16_Y282] gave a phosphorylation enrichment of 0.362. SGLDSYVRSLP [TRAPPC1_Y133_R129G] gave a phosphorylation enrichment of 0.379. With VDDEIYYFRKP [PBRM1_Y1289] the phosphorylation enrichment was 0.871. PLLEFYWDIFT [CDAN1_Y713_R714W_YF] was tested, and the phosphorylation enrichment was 0.833. PVDVAYRRGYF [PLEC_Y2967] gave a phosphorylation enrichment of 0.385. THEVRYVSAGQ [SLCO4A1_Y77] showed a phosphorylation enrichment of 0.393. Work on SDPIVYTLENI [EMR1_Y534_I533V] yielded a phosphorylation enrichment of 0.465. In the case of KFRREYILSLE [GPC3_Y299_W296R_YF], the phosphorylation enrichment is reported as 0.551. EICTQYEAMAS [GFAP_Y242_R239C] showed a phosphorylation enrichment of 0.65. For EFTAGYNVKFD [GPX4_Y123_A120T], the phosphorylation enrichment was 0.422. For SSYDTYHLSRE [KIR3DL2_Y253_I252T], the phosphorylation enrichment was 0.451. For SIGLGYHKDLQ [NF1_Y1169], the phosphorylation enrichment was 0.34. FSCLPYRRLAY [SLC52A2_Y305_G306R] gave a phosphorylation enrichment of 0.613.

These sequences were tested against EPHB2 (UniProt P29323) in the same assay as above.
Chain of EPHB2 (P29323 whole entry, looked up): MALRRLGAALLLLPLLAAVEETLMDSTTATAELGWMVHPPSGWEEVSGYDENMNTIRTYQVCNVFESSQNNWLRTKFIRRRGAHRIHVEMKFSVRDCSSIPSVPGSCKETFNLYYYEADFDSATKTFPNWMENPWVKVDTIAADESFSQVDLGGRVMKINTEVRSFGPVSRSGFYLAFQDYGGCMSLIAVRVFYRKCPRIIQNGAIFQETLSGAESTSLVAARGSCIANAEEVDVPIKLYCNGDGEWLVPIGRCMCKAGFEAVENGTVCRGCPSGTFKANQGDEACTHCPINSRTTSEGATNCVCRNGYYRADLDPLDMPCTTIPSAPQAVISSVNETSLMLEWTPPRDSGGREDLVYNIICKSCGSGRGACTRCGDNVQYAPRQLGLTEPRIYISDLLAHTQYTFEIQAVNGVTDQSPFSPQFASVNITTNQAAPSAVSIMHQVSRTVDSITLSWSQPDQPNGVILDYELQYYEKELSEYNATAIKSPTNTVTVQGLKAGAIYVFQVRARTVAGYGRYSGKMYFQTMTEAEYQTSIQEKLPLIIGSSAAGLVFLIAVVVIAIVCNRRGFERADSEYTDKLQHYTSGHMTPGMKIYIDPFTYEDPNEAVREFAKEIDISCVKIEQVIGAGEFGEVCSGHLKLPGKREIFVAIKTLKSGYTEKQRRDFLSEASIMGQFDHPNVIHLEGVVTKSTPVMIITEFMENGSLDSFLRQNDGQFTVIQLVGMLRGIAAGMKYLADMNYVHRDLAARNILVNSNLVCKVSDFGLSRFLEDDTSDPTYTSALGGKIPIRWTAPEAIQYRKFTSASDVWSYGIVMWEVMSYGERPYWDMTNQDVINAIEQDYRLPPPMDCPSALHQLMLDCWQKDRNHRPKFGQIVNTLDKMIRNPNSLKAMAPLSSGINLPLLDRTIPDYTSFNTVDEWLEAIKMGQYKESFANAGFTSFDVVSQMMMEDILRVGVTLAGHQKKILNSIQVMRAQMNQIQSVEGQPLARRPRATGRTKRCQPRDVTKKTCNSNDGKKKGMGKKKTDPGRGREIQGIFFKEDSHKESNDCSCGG
GKMSQYLESMQ [CYB5R3_Y130] gave a phosphorylation enrichment of 0.454. With QWRTKYETDTI [MYH7_Y1375_A1379T] the phosphorylation enrichment was 0.797. KILAKYLLETS [NAMPT_Y175] gave a phosphorylation enrichment of 0.412. IVRSRYEDLED [VHL_Y185_L184R] showed a phosphorylation enrichment of 0.759. In the case of DRLTVYIDRVR [LMNA_Y45_A43T], the phosphorylation enrichment is reported as 0.614. CHKRTYKVTGL gave a phosphorylation enrichment of 0.357. For ENFSEYQEIAV [HEMGN_Y150], the phosphorylation enrichment was 1.24. In the case of DRLASYPEKVR [KRT13_Y118_L119P], the phosphorylation enrichment is reported as 0.413. In the case of AVLSLYASGCT [ACTA2_Y145_R149C], the phosphorylation enrichment is reported as 0.658. Sequence NLNGKYFKPRA [ANGPTL3_Y417_N418Y_YF] has a phosphorylation enrichment of 0.365. For GDFSRYDEGSG [RECQL5_Y484], the phosphorylation enrichment was 0.481. AHEALYLEADL [CENPF_Y1920_E1915A] was tested, and the phosphorylation enrichment was 0.802. Sequence EVASVYESYQP [MAVS_Y92_Q93E] has a phosphorylation enrichment of 1.61. RFVTRSIFNRE [HLA-DQB1_Y62_Y62S_YF] showed a phosphorylation enrichment of 0.718. SVTCTHSPALN [TP53_Y126_Y126H] gave a phosphorylation enrichment of 0.548. For PLFSKYWPNHI [GREB1L_Y1560_R1558S_YF], the phosphorylation enrichment was 0.925. LLKAKYELLNA [POLR3A_Y714] was tested, and the phosphorylation enrichment was 0.491. In the case of SNMPTYSGHFS [GRIN2A_Y1224_T1229S], the phosphorylation enrichment is reported as 0.784. TTSQLYDAMPI [PDPK1_Y9_V12M] gave a phosphorylation enrichment of 6.17. For GIVEDYRPPFY [ACVRL1_Y421], the phosphorylation enrichment was 0.502. For QRKRAYVEIEY [MAK16_Y282], the phosphorylation enrichment was 0.463. With SGLDSYVRSLP [TRAPPC1_Y133_R129G] the phosphorylation enrichment was 0.581. For VDDEIYYFRKP [PBRM1_Y1289], the phosphorylation enrichment was 0.84. PLLEFYWDIFT [CDAN1_Y713_R714W_YF] was tested, and the phosphorylation enrichment was 0.645. PVDVAYRRGYF [PLEC_Y2967] showed a phosphorylation enrichment of 0.577. THEVRYVSAGQ [SLCO4A1_Y77] gave a phosphorylation enrichment of 0.368. For SDPIVYTLENI [EMR1_Y534_I533V], the phosphorylation enrichment was 0.523. In the case of KFRREYILSLE [GPC3_Y299_W296R_YF], the phosphorylation enrichment is reported as 0.586. Sequence EICTQYEAMAS [GFAP_Y242_R239C] has a phosphorylation enrichment of 0.614. For EFTAGYNVKFD [GPX4_Y123_A120T], the phosphorylation enrichment was 0.474. SSYDTYHLSRE [KIR3DL2_Y253_I252T] gave a phosphorylation enrichment of 0.841. SIGLGYHKDLQ [NF1_Y1169] gave a phosphorylation enrichment of 0.629. Work on FSCLPYRRLAY [SLC52A2_Y305_G306R] yielded a phosphorylation enrichment of 0.547.

Each sequence was assayed against FGFR1 (UniProt P11362) in the same assay as above.
Chain of FGFR1 (P11362 whole entry, looked up): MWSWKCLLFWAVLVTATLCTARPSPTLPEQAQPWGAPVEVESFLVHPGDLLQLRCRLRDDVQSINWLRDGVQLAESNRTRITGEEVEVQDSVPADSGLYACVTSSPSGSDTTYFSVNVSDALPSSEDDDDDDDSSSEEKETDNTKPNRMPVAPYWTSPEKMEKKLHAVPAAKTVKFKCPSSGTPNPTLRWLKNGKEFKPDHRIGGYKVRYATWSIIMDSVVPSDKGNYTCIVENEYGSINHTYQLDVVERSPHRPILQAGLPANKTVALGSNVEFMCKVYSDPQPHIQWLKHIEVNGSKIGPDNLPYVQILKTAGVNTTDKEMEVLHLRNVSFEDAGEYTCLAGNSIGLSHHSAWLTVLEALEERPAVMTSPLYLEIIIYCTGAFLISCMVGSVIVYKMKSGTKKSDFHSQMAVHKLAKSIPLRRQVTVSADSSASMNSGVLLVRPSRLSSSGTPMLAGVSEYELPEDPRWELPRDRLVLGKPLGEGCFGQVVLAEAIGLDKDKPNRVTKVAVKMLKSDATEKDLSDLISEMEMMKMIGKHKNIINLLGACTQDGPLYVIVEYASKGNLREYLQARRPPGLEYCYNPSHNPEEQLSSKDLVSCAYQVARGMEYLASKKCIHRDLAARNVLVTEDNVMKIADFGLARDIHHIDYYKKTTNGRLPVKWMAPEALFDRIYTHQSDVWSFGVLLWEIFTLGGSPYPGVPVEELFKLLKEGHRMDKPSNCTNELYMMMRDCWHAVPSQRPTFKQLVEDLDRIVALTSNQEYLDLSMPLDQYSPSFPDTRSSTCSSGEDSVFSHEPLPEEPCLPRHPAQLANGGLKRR
Work on GKMSQYLESMQ [CYB5R3_Y130] yielded a phosphorylation enrichment of 0.444. Sequence QWRTKYETDTI [MYH7_Y1375_A1379T] has a phosphorylation enrichment of 0.473. KILAKYLLETS [NAMPT_Y175] showed a phosphorylation enrichment of 0.353. For IVRSRYEDLED [VHL_Y185_L184R], the phosphorylation enrichment was 0.664. Sequence DRLTVYIDRVR [LMNA_Y45_A43T] has a phosphorylation enrichment of 0.426. For CHKRTYKVTGL, the phosphorylation enrichment was 0.362. ENFSEYQEIAV [HEMGN_Y150] was tested, and the phosphorylation enrichment was 1.59. With DRLASYPEKVR [KRT13_Y118_L119P] the phosphorylation enrichment was 0.403. Work on AVLSLYASGCT [ACTA2_Y145_R149C] yielded a phosphorylation enrichment of 0.512. NLNGKYFKPRA [ANGPTL3_Y417_N418Y_YF] was tested, and the phosphorylation enrichment was 0.363. GDFSRYDEGSG [RECQL5_Y484] gave a phosphorylation enrichment of 0.471. In the case of AHEALYLEADL [CENPF_Y1920_E1915A], the phosphorylation enrichment is reported as 2.2. EVASVYESYQP [MAVS_Y92_Q93E] gave a phosphorylation enrichment of 0.527. For RFVTRSIFNRE [HLA-DQB1_Y62_Y62S_YF], the phosphorylation enrichment was 0.472. Work on SVTCTHSPALN [TP53_Y126_Y126H] yielded a phosphorylation enrichment of 0.404. With PLFSKYWPNHI [GREB1L_Y1560_R1558S_YF] the phosphorylation enrichment was 0.823. LLKAKYELLNA [POLR3A_Y714] showed a phosphorylation enrichment of 0.423. SNMPTYSGHFS [GRIN2A_Y1224_T1229S] was tested, and the phosphorylation enrichment was 0.433. With TTSQLYDAMPI [PDPK1_Y9_V12M] the phosphorylation enrichment was 0.537. For GIVEDYRPPFY [ACVRL1_Y421], the phosphorylation enrichment was 0.445. With QRKRAYVEIEY [MAK16_Y282] the phosphorylation enrichment was 0.623. Sequence SGLDSYVRSLP [TRAPPC1_Y133_R129G] has a phosphorylation enrichment of 0.453. VDDEIYYFRKP [PBRM1_Y1289] showed a phosphorylation enrichment of 6.49. For PLLEFYWDIFT [CDAN1_Y713_R714W_YF], the phosphorylation enrichment was 0.428. PVDVAYRRGYF [PLEC_Y2967] gave a phosphorylation enrichment of 0.565. THEVRYVSAGQ [SLCO4A1_Y77] was tested, and the phosphorylation enrichment was 0.416. Work on SDPIVYTLENI [EMR1_Y534_I533V] yielded a phosphorylation enrichment of 0.553. Work on KFRREYILSLE [GPC3_Y299_W296R_YF] yielded a phosphorylation enrichment of 0.518. Work on EICTQYEAMAS [GFAP_Y242_R239C] yielded a phosphorylation enrichment of 0.517. EFTAGYNVKFD [GPX4_Y123_A120T] gave a phosphorylation enrichment of 0.41. With SSYDTYHLSRE [KIR3DL2_Y253_I252T] the phosphorylation enrichment was 0.6. Work on SIGLGYHKDLQ [NF1_Y1169] yielded a phosphorylation enrichment of 0.414. FSCLPYRRLAY [SLC52A2_Y305_G306R] showed a phosphorylation enrichment of 0.656.
